This passage reports Ho/Con_2aR results from US20180155451A1 (published 2018).

B1: GpH7-B3 variant S337_15Y/GpL16-k0 (antibody, human IgG1, kappa)
heavy: not shown
light: DIVMTQSPLSLPVTPGEPASISCQASESLVHSNRNTYLHWYLQKPGQSPQLLIYKVSNRFSGVPDRFSGSGSGTDFTLKISRVEAEDVGVYYCSQNTHVPPTFGQGTKVEIERTVAAPSVFIFPPSDEQLKSGTASVVCLLNNFYPREAKVQWKVDNALQSGNSQESVTEQDSKDSTYSLSSTLTLSKADYEKHKVYACEVTHQGLSSPVTKSFNRGEC
notes: homodimerized antibody, mutation in both H chains; also called Ho Ab
B2: GpH7-B3 variant T335_19Q/GpL16-k0 (antibody, human IgG1, kappa)
heavy: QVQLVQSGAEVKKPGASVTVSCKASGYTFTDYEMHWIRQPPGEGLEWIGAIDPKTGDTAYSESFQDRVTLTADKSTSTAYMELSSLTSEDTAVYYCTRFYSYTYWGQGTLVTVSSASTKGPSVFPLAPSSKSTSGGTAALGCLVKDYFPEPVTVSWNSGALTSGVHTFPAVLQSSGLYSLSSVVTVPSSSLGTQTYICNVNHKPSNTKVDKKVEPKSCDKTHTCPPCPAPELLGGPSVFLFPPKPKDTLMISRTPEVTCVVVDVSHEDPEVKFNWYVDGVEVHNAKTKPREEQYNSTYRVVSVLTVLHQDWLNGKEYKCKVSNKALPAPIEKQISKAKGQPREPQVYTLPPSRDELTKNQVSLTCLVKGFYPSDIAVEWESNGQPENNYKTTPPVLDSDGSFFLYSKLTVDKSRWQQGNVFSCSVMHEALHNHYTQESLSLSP
light: DIVMTQSPLSLPVTPGEPASISCQASESLVHSNRNTYLHWYLQKPGQSPQLLIYKVSNRFSGVPDRFSGSGSGTDFTLKISRVEAEDVGVYYCSQNTHVPPTFGQGTKVEIERTVAAPSVFIFPPSDEQLKSGTASVVCLLNNFYPREAKVQWKVDNALQSGNSQESVTEQDSKDSTYSLSSTLTLSKADYEKHKVYACEVTHQGLSSPVTKSFNRGEC
notes: as for B1
B3: GpH7-B3 variant T335_01G/GpL16-k0 (antibody, human IgG1, kappa)
heavy: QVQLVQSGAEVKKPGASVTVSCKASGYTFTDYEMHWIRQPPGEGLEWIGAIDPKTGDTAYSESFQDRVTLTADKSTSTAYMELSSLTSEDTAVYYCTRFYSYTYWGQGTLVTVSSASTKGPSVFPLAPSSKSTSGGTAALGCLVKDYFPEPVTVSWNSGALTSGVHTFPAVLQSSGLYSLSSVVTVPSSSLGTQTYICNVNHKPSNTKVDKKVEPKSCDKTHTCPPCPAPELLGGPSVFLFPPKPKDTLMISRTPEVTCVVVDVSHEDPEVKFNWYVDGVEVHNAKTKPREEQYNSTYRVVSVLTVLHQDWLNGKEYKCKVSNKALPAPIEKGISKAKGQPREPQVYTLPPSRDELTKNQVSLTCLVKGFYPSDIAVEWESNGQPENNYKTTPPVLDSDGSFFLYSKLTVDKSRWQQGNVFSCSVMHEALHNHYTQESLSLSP
light: DIVMTQSPLSLPVTPGEPASISCQASESLVHSNRNTYLHWYLQKPGQSPQLLIYKVSNRFSGVPDRFSGSGSGTDFTLKISRVEAEDVGVYYCSQNTHVPPTFGQGTKVEIERTVAAPSVFIFPPSDEQLKSGTASVVCLLNNFYPREAKVQWKVDNALQSGNSQESVTEQDSKDSTYSLSSTLTLSKADYEKHKVYACEVTHQGLSSPVTKSFNRGEC
notes: as for B1
B4: GpH7-B3 variant T335_10E/GpL16-k0 (antibody, human IgG1, kappa)
heavy: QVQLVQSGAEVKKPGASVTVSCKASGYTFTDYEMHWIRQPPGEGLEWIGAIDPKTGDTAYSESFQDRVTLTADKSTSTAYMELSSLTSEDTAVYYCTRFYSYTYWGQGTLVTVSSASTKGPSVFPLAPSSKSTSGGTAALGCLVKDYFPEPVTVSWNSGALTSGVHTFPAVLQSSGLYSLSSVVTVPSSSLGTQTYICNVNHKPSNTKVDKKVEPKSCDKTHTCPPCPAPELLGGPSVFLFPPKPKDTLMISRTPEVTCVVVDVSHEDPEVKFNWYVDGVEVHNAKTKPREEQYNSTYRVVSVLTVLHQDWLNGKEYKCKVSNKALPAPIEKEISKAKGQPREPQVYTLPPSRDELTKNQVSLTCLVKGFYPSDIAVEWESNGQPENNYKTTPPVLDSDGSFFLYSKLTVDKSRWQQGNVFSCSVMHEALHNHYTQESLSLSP
light: DIVMTQSPLSLPVTPGEPASISCQASESLVHSNRNTYLHWYLQKPGQSPQLLIYKVSNRFSGVPDRFSGSGSGTDFTLKISRVEAEDVGVYYCSQNTHVPPTFGQGTKVEIERTVAAPSVFIFPPSDEQLKSGTASVVCLLNNFYPREAKVQWKVDNALQSGNSQESVTEQDSKDSTYSLSSTLTLSKADYEKHKVYACEVTHQGLSSPVTKSFNRGEC
notes: as for B1
B5: GpH7-B3 variant T335_15Y/GpL16-k0 (antibody, human IgG1, kappa)
heavy: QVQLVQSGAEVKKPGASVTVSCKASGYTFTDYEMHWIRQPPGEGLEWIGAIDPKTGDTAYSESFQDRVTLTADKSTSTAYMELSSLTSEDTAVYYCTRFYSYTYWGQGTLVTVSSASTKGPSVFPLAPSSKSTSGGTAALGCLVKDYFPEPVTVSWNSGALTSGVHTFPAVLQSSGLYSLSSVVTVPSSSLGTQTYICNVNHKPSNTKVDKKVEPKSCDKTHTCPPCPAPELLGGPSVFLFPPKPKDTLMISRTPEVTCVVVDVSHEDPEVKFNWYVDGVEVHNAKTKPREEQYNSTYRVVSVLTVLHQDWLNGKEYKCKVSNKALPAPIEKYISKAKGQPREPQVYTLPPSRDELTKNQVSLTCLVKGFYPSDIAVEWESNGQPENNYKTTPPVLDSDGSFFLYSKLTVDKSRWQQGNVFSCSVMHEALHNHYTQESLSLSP
light: DIVMTQSPLSLPVTPGEPASISCQASESLVHSNRNTYLHWYLQKPGQSPQLLIYKVSNRFSGVPDRFSGSGSGTDFTLKISRVEAEDVGVYYCSQNTHVPPTFGQGTKVEIERTVAAPSVFIFPPSDEQLKSGTASVVCLLNNFYPREAKVQWKVDNALQSGNSQESVTEQDSKDSTYSLSSTLTLSKADYEKHKVYACEVTHQGLSSPVTKSFNRGEC
notes: as for B1
B6: GpH7-B3 variant T335_02A/GpL16-k0 (antibody, human IgG1, kappa)
heavy: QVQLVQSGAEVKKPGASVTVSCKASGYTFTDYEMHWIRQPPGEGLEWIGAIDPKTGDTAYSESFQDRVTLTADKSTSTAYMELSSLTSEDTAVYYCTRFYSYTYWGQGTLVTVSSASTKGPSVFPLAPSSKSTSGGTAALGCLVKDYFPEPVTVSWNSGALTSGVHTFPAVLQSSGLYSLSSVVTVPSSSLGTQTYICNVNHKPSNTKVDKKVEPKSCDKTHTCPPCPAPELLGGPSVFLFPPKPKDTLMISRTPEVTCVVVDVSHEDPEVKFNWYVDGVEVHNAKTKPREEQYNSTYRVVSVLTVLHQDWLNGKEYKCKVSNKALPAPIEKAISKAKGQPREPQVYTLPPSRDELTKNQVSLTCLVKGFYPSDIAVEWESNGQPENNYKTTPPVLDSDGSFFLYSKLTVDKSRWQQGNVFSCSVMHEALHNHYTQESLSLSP
light: DIVMTQSPLSLPVTPGEPASISCQASESLVHSNRNTYLHWYLQKPGQSPQLLIYKVSNRFSGVPDRFSGSGSGTDFTLKISRVEAEDVGVYYCSQNTHVPPTFGQGTKVEIERTVAAPSVFIFPPSDEQLKSGTASVVCLLNNFYPREAKVQWKVDNALQSGNSQESVTEQDSKDSTYSLSSTLTLSKADYEKHKVYACEVTHQGLSSPVTKSFNRGEC
notes: as for B1
B7: GpH7-B3 variant T335_16H/GpL16-k0 (antibody, human IgG1, kappa)
heavy: not shown
light: DIVMTQSPLSLPVTPGEPASISCQASESLVHSNRNTYLHWYLQKPGQSPQLLIYKVSNRFSGVPDRFSGSGSGTDFTLKISRVEAEDVGVYYCSQNTHVPPTFGQGTKVEIERTVAAPSVFIFPPSDEQLKSGTASVVCLLNNFYPREAKVQWKVDNALQSGNSQESVTEQDSKDSTYSLSSTLTLSKADYEKHKVYACEVTHQGLSSPVTKSFNRGEC
notes: as for B1
B8: GpH7-B3 variant T335_13S/GpL16-k0 (antibody, human IgG1, kappa)
heavy: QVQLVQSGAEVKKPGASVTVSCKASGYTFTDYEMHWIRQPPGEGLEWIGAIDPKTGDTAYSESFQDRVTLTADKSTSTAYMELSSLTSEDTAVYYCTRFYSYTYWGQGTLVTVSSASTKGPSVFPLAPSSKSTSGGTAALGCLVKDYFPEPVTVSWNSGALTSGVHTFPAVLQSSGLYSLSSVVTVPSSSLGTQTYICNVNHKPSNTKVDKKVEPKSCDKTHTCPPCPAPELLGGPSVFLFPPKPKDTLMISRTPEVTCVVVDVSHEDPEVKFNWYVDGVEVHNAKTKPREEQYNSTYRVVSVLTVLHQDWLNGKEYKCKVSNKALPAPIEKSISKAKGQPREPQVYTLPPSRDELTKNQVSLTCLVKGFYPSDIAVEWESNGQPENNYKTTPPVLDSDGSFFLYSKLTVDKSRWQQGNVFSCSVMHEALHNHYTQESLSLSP
light: DIVMTQSPLSLPVTPGEPASISCQASESLVHSNRNTYLHWYLQKPGQSPQLLIYKVSNRFSGVPDRFSGSGSGTDFTLKISRVEAEDVGVYYCSQNTHVPPTFGQGTKVEIERTVAAPSVFIFPPSDEQLKSGTASVVCLLNNFYPREAKVQWKVDNALQSGNSQESVTEQDSKDSTYSLSSTLTLSKADYEKHKVYACEVTHQGLSSPVTKSFNRGEC
notes: as for B1
B9: GpH7-B3 variant S337_18N/GpL16-k0 (antibody, human IgG1, kappa)
heavy: not shown
light: DIVMTQSPLSLPVTPGEPASISCQASESLVHSNRNTYLHWYLQKPGQSPQLLIYKVSNRFSGVPDRFSGSGSGTDFTLKISRVEAEDVGVYYCSQNTHVPPTFGQGTKVEIERTVAAPSVFIFPPSDEQLKSGTASVVCLLNNFYPREAKVQWKVDNALQSGNSQESVTEQDSKDSTYSLSSTLTLSKADYEKHKVYACEVTHQGLSSPVTKSFNRGEC
notes: as for B1
B10: GpH7-B3 variant T335_07I/GpL16-k0 (antibody, human IgG1, kappa)
heavy: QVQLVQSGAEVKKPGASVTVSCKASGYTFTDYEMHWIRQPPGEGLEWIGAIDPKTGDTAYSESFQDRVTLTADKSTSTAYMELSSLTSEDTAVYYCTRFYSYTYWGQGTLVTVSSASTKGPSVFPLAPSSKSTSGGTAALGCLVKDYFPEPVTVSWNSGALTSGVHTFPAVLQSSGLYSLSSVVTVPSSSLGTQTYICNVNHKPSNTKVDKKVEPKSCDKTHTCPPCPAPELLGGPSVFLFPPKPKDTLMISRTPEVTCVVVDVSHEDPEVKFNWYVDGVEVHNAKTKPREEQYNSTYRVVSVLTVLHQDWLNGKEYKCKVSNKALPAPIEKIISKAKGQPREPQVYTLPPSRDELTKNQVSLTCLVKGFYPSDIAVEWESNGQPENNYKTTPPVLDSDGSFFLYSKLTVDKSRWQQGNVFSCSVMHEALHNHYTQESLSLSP
light: DIVMTQSPLSLPVTPGEPASISCQASESLVHSNRNTYLHWYLQKPGQSPQLLIYKVSNRFSGVPDRFSGSGSGTDFTLKISRVEAEDVGVYYCSQNTHVPPTFGQGTKVEIERTVAAPSVFIFPPSDEQLKSGTASVVCLLNNFYPREAKVQWKVDNALQSGNSQESVTEQDSKDSTYSLSSTLTLSKADYEKHKVYACEVTHQGLSSPVTKSFNRGEC
notes: as for B1
B11: GpH7-B3 variant T335_05P/GpL16-k0 (antibody, human IgG1, kappa)
heavy: not shown
light: DIVMTQSPLSLPVTPGEPASISCQASESLVHSNRNTYLHWYLQKPGQSPQLLIYKVSNRFSGVPDRFSGSGSGTDFTLKISRVEAEDVGVYYCSQNTHVPPTFGQGTKVEIERTVAAPSVFIFPPSDEQLKSGTASVVCLLNNFYPREAKVQWKVDNALQSGNSQESVTEQDSKDSTYSLSSTLTLSKADYEKHKVYACEVTHQGLSSPVTKSFNRGEC
notes: as for B1
B12: GpH7-B3 variant T335_18N/GpL16-k0 (antibody, human IgG1, kappa)
heavy: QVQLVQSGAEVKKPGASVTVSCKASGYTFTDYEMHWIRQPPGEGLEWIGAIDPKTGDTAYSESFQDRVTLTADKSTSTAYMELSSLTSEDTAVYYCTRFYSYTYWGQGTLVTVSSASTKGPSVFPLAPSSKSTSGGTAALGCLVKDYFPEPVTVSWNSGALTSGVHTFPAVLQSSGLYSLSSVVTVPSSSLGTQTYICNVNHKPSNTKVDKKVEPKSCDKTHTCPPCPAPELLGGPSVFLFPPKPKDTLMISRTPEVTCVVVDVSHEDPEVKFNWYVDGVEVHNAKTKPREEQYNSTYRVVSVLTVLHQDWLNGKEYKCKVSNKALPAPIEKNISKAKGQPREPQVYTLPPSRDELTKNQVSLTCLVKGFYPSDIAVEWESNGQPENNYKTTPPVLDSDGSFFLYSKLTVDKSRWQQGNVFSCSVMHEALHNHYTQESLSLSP
light: DIVMTQSPLSLPVTPGEPASISCQASESLVHSNRNTYLHWYLQKPGQSPQLLIYKVSNRFSGVPDRFSGSGSGTDFTLKISRVEAEDVGVYYCSQNTHVPPTFGQGTKVEIERTVAAPSVFIFPPSDEQLKSGTASVVCLLNNFYPREAKVQWKVDNALQSGNSQESVTEQDSKDSTYSLSSTLTLSKADYEKHKVYACEVTHQGLSSPVTKSFNRGEC
notes: as for B1
B13: GpH7-B3 variant S337_19Q/GpL16-k0 (antibody, human IgG1, kappa)
heavy: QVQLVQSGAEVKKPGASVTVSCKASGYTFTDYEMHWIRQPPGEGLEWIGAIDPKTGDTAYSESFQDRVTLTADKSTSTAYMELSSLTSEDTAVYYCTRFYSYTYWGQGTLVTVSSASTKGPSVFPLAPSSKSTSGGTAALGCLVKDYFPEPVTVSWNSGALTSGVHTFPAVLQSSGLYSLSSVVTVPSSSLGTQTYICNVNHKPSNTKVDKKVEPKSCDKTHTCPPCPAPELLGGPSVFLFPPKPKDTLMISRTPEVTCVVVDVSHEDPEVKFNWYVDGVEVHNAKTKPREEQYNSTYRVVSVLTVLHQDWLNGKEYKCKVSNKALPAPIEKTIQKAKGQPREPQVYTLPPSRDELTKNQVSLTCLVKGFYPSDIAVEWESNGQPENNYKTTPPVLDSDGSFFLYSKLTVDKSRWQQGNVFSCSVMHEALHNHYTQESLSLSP
light: DIVMTQSPLSLPVTPGEPASISCQASESLVHSNRNTYLHWYLQKPGQSPQLLIYKVSNRFSGVPDRFSGSGSGTDFTLKISRVEAEDVGVYYCSQNTHVPPTFGQGTKVEIERTVAAPSVFIFPPSDEQLKSGTASVVCLLNNFYPREAKVQWKVDNALQSGNSQESVTEQDSKDSTYSLSSTLTLSKADYEKHKVYACEVTHQGLSSPVTKSFNRGEC
notes: as for B1
B14: GpH7-B3 variant S337_20W/GpL16-k0 (antibody, human IgG1, kappa)
heavy: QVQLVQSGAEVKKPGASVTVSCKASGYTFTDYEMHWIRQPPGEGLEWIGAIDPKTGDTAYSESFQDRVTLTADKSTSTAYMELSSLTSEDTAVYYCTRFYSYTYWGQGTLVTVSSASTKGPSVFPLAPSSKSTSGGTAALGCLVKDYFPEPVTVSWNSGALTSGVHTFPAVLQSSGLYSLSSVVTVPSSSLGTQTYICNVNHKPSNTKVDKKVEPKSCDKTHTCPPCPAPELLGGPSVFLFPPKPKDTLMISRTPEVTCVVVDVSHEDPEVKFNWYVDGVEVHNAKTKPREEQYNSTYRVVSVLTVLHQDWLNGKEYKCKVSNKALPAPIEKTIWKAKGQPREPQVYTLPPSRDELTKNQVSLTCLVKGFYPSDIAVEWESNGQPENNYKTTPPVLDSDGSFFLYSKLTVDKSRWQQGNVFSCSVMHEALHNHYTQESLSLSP
light: DIVMTQSPLSLPVTPGEPASISCQASESLVHSNRNTYLHWYLQKPGQSPQLLIYKVSNRFSGVPDRFSGSGSGTDFTLKISRVEAEDVGVYYCSQNTHVPPTFGQGTKVEIERTVAAPSVFIFPPSDEQLKSGTASVVCLLNNFYPREAKVQWKVDNALQSGNSQESVTEQDSKDSTYSLSSTLTLSKADYEKHKVYACEVTHQGLSSPVTKSFNRGEC
notes: as for B1
B15: GpH7-B3 variant S337_16H/GpL16-k0 (antibody, human IgG1, kappa)
heavy: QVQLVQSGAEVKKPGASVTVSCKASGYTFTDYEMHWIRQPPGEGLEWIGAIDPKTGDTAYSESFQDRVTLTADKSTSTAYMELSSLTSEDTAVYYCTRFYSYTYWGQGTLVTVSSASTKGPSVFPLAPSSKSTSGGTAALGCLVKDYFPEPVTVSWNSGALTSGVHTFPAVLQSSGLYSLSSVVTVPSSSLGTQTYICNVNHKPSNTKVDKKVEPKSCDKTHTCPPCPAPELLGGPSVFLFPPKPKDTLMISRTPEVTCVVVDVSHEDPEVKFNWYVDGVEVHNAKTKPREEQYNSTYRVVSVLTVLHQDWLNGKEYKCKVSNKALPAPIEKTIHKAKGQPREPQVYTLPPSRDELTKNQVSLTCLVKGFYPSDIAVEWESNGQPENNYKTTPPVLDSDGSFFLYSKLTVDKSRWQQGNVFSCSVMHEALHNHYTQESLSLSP
light: DIVMTQSPLSLPVTPGEPASISCQASESLVHSNRNTYLHWYLQKPGQSPQLLIYKVSNRFSGVPDRFSGSGSGTDFTLKISRVEAEDVGVYYCSQNTHVPPTFGQGTKVEIERTVAAPSVFIFPPSDEQLKSGTASVVCLLNNFYPREAKVQWKVDNALQSGNSQESVTEQDSKDSTYSLSSTLTLSKADYEKHKVYACEVTHQGLSSPVTKSFNRGEC
notes: as for B1
B16: GpH7-B3 variant T335_12R/GpL16-k0 (antibody, human IgG1, kappa)
heavy: not shown
light: DIVMTQSPLSLPVTPGEPASISCQASESLVHSNRNTYLHWYLQKPGQSPQLLIYKVSNRFSGVPDRFSGSGSGTDFTLKISRVEAEDVGVYYCSQNTHVPPTFGQGTKVEIERTVAAPSVFIFPPSDEQLKSGTASVVCLLNNFYPREAKVQWKVDNALQSGNSQESVTEQDSKDSTYSLSSTLTLSKADYEKHKVYACEVTHQGLSSPVTKSFNRGEC
notes: as for B1

The assay concerns the target T1, FcγRIIa R (human FcγRIIa, allotype R, Arg at position 131), extracellular domain with C-terminal His tag (human, UniProt P12318 34-217).
T1 construct: extracellular domain; expressed in FreeStyle293 cells; analyte in Biacore; also called 2aR; FcgRIIa R
T1 sequence (looked up): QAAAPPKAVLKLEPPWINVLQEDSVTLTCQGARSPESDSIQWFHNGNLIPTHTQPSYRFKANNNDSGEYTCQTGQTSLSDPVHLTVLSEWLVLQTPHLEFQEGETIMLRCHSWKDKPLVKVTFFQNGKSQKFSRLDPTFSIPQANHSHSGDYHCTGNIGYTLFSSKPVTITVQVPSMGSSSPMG
Nature of the assay: SPR (Biacore), relative binding vs GpH7-B3/GpL16-k0. The protocol: Analysis of interaction between objective antibody and the FcγR was carried out using Biacore T100 (GE Healthcare). HBS-EP+ (GE Healthcare) was used as the running buffer, and the measurement temperature was set to 25° C. Chips produced by immobilizing the antigen peptide by the amine coupling method to a Series S Sencor Chip CM5 (GE Healthcare), or alternatively, chips produced by allowing preliminarily biotinylated antigen peptides to interact with and immobilize onto a Series S Sensor Chip SA (certified) (GE Healthcare) were used. Antibodies of interest were captured onto an antigen peptide-immobilized chip, and allowed to interact to each FcγR diluted with running buffer. To regenerate and repeatedly use the chip, the antibodies captured on the chip were washed off by reacting 10 mM glycine-HCl, pH 1.5.
The FcγR-binding activity of each antibody was assessed primarily using as an indicator the FcγR-binding activity and dissociation constant for FcγR.
On to B1, for which the Ho/Con_2aR was 100 relative, control = 100.

B2: the Ho/Con_2aR is 102 relative, control = 100.

B3: the Ho/Con_2aR is 97.7 relative, control = 100.

For B4, the Ho/Con_2aR is 109 relative, control = 100.

As to B5, the Ho/Con_2aR is 107 relative, control = 100.

Regarding B6, the Ho/Con_2aR was 102 relative, control = 100.

Turning to B7, the Ho/Con_2aR is 102 relative, control = 100.

For the molecule B8, the Ho/Con_2aR is 102 relative, control = 100.

Regarding B9, the Ho/Con_2aR is 103 relative, control = 100.

Turning to B10, the Ho/Con_2aR is 107 relative, control = 100.

Take B11: the Ho/Con_2aR was 104 relative, control = 100.

For B12, the Ho/Con_2aR was 100 relative, control = 100.

As for B13, the Ho/Con_2aR is 102 relative, control = 100.

As for B14, the Ho/Con_2aR is 105 relative, control = 100.

In the case of B15, the Ho/Con_2aR is 107 relative, control = 100.

Regarding B16, the Ho/Con_2aR is 94 relative, control = 100.
